For one experiment, the system named is Mice dendritic cells. The experiment in a line: Maturation and differentiation of mice bone marrow derived dendritic cells, activation markers and viability by FACS. It is filed as cell-based. The procedure: FIG. 1. Effect of the anti-CMKLR1 variants 1G1, 2G1, 3G1 and 4G1 chimeric antibodies on the DCs maturation and differentiation. Mice dendritic cells were incubated during maturation phase (24 h or 48 h) followed by a differentiation phase with excipient or RvE1 or anti-CMKLR1 antibodies variants (mutations on positions 1 and 2 of SEQ ID No. 8, corresponding to the VH-CDR3: 1G1 (LL), 2G1 (LI), 3G1 (IL) or 4G1 (II) or isotype controls (hIgG1 or mIgG)). Cells were then stained for FACS analysis with cell marker antibodies: A. CD80-PE; B. CD86-FITC; C. CD103-PerCPCy5.5; D. I/Ab-APC. Mean of Fluorescence was determined in each condition. E and F represent the viability of the cells measured by FACS using LIVE/DEAD® kit from Life Technologies in each condition after 24 or 48 hours of maturation respectively.
FIG. 17. Study of the myeloid cell activation markers after CMKLR1 pathway activation. Dendritic cells incubated in excipient, RvE1, 2G1 or isotype control (hIgG1) were then stained for FACS analysis with marker antibodies: A. CD80-PE. B. CD86-FITC. C. CD103-PerCPCy5.5. D. CD40-PeCy7. E. I/Ab-APC. Mean of Fluorescence was determined in each condition.
Bone marrow cells were harvested and cultured in RPMI medium supplemented with 10% FBS, glutamine and antibiotics and the dendritic cell differentiation was induced by GM-CSF at 20 ng/ml for 7 days. Then, immature dendritic cells (iDC) were collected and cultured for 24 hours with LPS (100 ng/ml) to induce the maturation from iDC to mDC. Treatments were added during differentiation and maturation at 2 μg/ml.
Dendritic cells were resuspended in PBS-FBS-EDTA and incubated with live and dead (LIVE/DEAD® Fixable Dead Cell Stains Yellow-Life Technologies) for 30 minutes on ice. Staining of CD11c-BV711, CD11b-APCCy7, I/Ab-APC, CD103-PerCPCy5.5, CCR7-V450, CD40-PeCy7, CD80-PE, CD86-FITC (all provided by BD Pharmingen) were performed.

The subject of experiment [1] is C57BI/6 male mice, colitis induced by TNBS. The experiment in a line: Acute inflammatory colitis model induced by TNBS. It is filed as in vivo. To be noted: FIG. 3, 2G1 10 μg, RvE1 1 μg per mouse i.p. The procedure:
FIG. 3. […] Mice received 200 μL of the haptenating agent TNBS at 5% in 50% ethanol on day 0 and then were injected with isotype control hIgG1 (10 μg per mouse) (x), RvE1 (1 μg per mouse) daily (•), or 2G1 antibody (10 μg per mouse) three times ( ) for 5 days, or non-treated (wild type animals) (▾). Mice were sacrificed colon length was measured in each condition.
Colitis was induced in 8-10 weeks-old-C57BI/6 male mice by intrarectal injection of 200 μL of the haptenating agent TNBS at 5% in 50% ethanol on day 0. Treatments were injected intra-peritoneally; RvE1 (1 μg per mouse) daily for three days, or 2G1 antibody (10 μg per mouse) twice for 3 days. Colitis follow-up consisting of body weight and stool score (0: normal stool; 4: blood in stool) parameters were performed daily (data not represented). When mice are euthanized, colon length representing the pathology severity was measured.

The next experiment concerns Hepa 1.6 cells. The experiment in a line: Orthotopic hepatocarcinoma (HCC) model, overall survival. To be noted: FIG. 22; Hepa 1.6 HCC model; anti-CMKLR1 0.8 mg/kg, anti-PD1 8 mg/kg; followed sixty days.
For a further experiment, the target named is T1, CMKLR1 receptor (Homo sapiens, UniProt Q99788).
T1 construct: host or cells: CHO-K1
T1 sequence (Q99788 1-373): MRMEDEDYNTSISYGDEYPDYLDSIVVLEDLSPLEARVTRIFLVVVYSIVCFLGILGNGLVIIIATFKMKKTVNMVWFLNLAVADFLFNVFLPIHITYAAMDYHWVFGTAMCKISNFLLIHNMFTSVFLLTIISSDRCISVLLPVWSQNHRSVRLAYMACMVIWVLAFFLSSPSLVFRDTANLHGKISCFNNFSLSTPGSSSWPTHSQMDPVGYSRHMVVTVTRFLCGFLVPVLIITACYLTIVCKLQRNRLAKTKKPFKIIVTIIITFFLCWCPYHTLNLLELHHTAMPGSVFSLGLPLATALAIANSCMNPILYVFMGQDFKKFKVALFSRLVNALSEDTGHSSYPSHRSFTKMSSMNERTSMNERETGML
The experiment can be described thus: Competition with Chemerin in cAMP production by CMKLR1 receptor, CHO-K1 CMKLR1 Gi cells. The experiment is classed as cell-based. To be noted: FIG. 20A; antibody 1 μM to 1 nM, chemerin 2 nM. The procedure:
The day before the experiment CHO-K1 CMKLR1 Gi cells (Discover'X ref 95-0080C2) were plated in pre-warmed cell reagent then plated in a 96-well plate at 100 μl/well of cells as (Discover'X ref 15-103) and incubated 24 hours at 37° C., in a 5% CO2 humidified incubator for 24 hours.
For the detection CAMP, antibody reagent and cAMP working detection solution was added to the plate for 1 hour at room temperature, then CAMP solution A was added, and cells incubated 3 hours at room temperature in the dark. Bioluminescence was read with a plate reader with 0.5 s integration.

Experiment [2] relates to C57BI/6 male mice, colitis induced by DSS. The experiment in a line: Acute inflammatory colitis model induced by DSS. The experiment is classed as in vivo. The procedure: FIG. 2. […] Mice were injected after 6 days of DSS induction with isotype control hIgG1 (10 μg per mouse) (x), RvE1 (1 μg per mouse) daily (•), or 2G1 antibody (10 μg per mouse) three times ( ) for 5 days. Wild type mice, not treated, are represented by an ▾. A. Animal weight loss. B. Animal stool score C. Colon length. D. Resolution index.
Colitis was induced in 8-10 weeks-old-C57BI/6 male mice by adding 2% (wt/vol) of DSS to the sterile drinking ad libitum water for 6 days. Treatments were injected intra-peritoneally: Isotype control hIgG1 (10 μg per mouse), RvE1 (1 μg per mouse) daily, or 2G1 antibody (10 μg per mouse) three times for 5 days. Colitis follow-up consisting of body weight and stool score (0: normal stool; 4: blood in stool) parameters were performed daily. When mice were euthanized, colon length representing the pathology severity was measured. Resolution index was determined in the different conditions as described in Bannenberg et al., 2005.

Experimental for Hepa 1.6 cells: Effect of an anti-CMKLR1 antibody on an Hepatocarcinoma mice model (HCC model). […] Isotype control antibody was used at 0.8 mg/kg three times a week for 2 weeks. Mice response were considered partial (PR) when mice survive few days to 1 month after stop of treatment or complete (CR) when mice survive over 1 month or cured when they survive three times longer than the time necessary to all control mice dye.
Method: Mice were anesthetized with a cocktail of xylazine/ketamine. After a laparotomy, tumoral Hepa 1.6 cells were injected in PBS through the portal vein (2.5·10^6 cells/100 μL) in PBS. The treatment was started 4 days after tumor injection. The anti-CMKLR1 antibody (2G1clone) and the hIgG1 istotype control were injected at 0.8 mg/kg three times per week during 2 weeks. The anti-PD1 monoclonal antibody was injected twice a week during 2 weeks intraperitoneally in PBS (8 mg/kg). Combination anti-CMKLR1 and anti-PD1 antibodies was tested as well (0.8 mg/kg and 8 mg/kg respectively).

B1: 2G1: chimeric anti-CMKLR1 antibody, murine variable regions (SEQ ID No: 10 and 17), human IgG1 constant regions; VH-CDR3 variant LI (antibody, V domains shown)
VH: METDTLLLWVLLLWVPGSTGDEVQLVASGGGLVQPGGSLKLSCAASGFTFSSYGMSWVRQTPDRRLELVATINRYGGSTYYPDSVKGRFTISRDNAKNTLYLQMSSLKSEDTAMYYCPRLIYYGNEGDSWGQGTTLTVSS
VL: METDTLLLWVLLLWVPGSTGDQIVLTQSPAIMSASPGEKVTMTCSASSSVSFMHWYQQKSGTSPKRWIYDTTKLTSGVPARFSGSGSGTFYSLTISSMEAEDAATYYCQQWNSKPPLTFGPGTKLELKR
modifications: human IgG1 constant regions
notes: VH-CDR3 variant LI
In the case of B1, in the experiment on Mice dendritic cells (FIG. 1, FACS, compared with C7 antibody), the “level of detection of DCs expressing CD103 and IAb” value is given as “lower than DCs cells treated with C7 antibody”. Also, the “DCs activation and/or maturation towards a pro-inflammatory pathway” value in the experiment on Mice dendritic cells (FIG. 1, mice dendritic cells, maturation 24 h or 48 h) is “inhibit DCs activation and/or maturation in a stronger manner than other synthetized antibodies (3G1 and 4G1)”. For the same molecule, in the experiment with Mice dendritic cells (FIG. 17, FACS, compared to the excipient or isotype control), the “expression of CD80, CD86, CD103, CD40 and IAb (DC activation markers)” value is listed as “strong decrease”. The viability of cells result with Mice dendritic cells (FIGS. 1E and 1F, LIVE/DEAD kit, after 24 or 48 hours of maturation, compared with other antibodies, C7 or Resolvin E1) is listed as “enhanced”. In experiment [1], the colon length result is reported as “the same as normal animal (wt)”. The molecule also registered a survival rate with Hepa 1.6 cells of 15%. The “reversal of Chemerin-induced inhibition of forskolin-dependent cAMP production” value with CMKLR1 receptor is recorded as “could not revert this inhibition of production”. Moreover, the “overall state of the animals” value in experiment [2] (10 μg per mouse i.p. three times, vs control antibody or RvE1) was “better overall state”. Moreover, the weight loss entry in experiment [2] (FIG. 2A, 10 μg per mouse i.p.) was “lost significantly less weight”. Also, the score stool entry in experiment [2] (FIG. 2B, 10 μg per mouse i.p.) was “significantly better”.

These data come from patent US20240400698A1, “ANTI-CHEMOKIN LIKE RECEPTOR 1 ANTIBODIES AND THEIR THERAPEUTIC APPLICATIONS” (OSE IMMUNOTHERAPEUTICS, priority 2018, published 2024).
